For orientation: Kd means the constant that tells how readily two partners part at equilibrium. The term EC50 denotes the concentration needed to bring the measured effect to its halfway point.

Test [1] addresses T1, PD-1-mFc (human, UniProt Q15116 25-170, limits assumed).
T1 construct: also called human PD-1-mFc
Put plainly: BLI (Fortebio), PD1-mFc on AMC sensor, antibody 0.62-50 nM, 30 C. As to the method:
The sample dilution buffer was PBS (0.02% Tween-20, 0.1% BSA, pH 7.4). […] The data were analyzed by 1:1 model fitting to obtain affinity constants.

The target of a further test is human PD-1-mFc-biotin (human, UniProt Q15116 25-170, limits assumed, biotin label, site not stated). As to the kind of experiment: competitive ELISA, blocking of PD-1-mFc-biotin binding to coated PD-L1-mFc. As to the method:
After incubation, the microplate was blocked with a PBS solution containing 1% BSA at 37° C. for 2 h. […] The antibody was serially diluted to 7 concentrations in a gradient ratio of 1:3 on a dilution plate with 10 μg/mL as the starting concentration, and a blank control was set. […] Then the mixture after reaction was added to the coated microplate, and the microplate was incubated for at 37° C. for 30 min. After incubation, the plate was washed three times with PBST and dried. SA-HRP (KPL, 14-30-00) working solution was added, and the plate was incubated at 37° C. for 30 min. After incubation, the plate was washed four times and patted dry. Then TMB (Neogen, 308177) was added in the dark for chromogenesis for 5 min, and a stop solution was added to terminate chromogenic reaction. Then the microplate was put into a microplate reader immediately, and the OD value of each well in the microplate was read at 450 nm. The data were analyzed and processed by SoftMax Pro 6.2.1.

Test [2] deals with T1, PD-1-mFc. Put plainly: ELISA, PD-1-mFc coated. As to the method:
Then the microplate coated with antigens was washed once with PBST, and then blocked with a PBS solution containing 1% BSA as blocking solution at 37° C. for 2 h. After blocking, the microplate was washed 3 times with PBST. The microplate containing the test antibodies was incubated at 37° C. for 30 min, and then washed 3 times with PBST. […] The microplate was put into a microplate reader immediately, and the OD value of each well in the microplate was read at 450 nm. The data were analyzed and processed by SoftMax Pro 6.2.1.
In general terms: ELISA stands for enzyme-linked immunosorbent assay.

T1 sequence (Q15116 other isoform, or with tags, fused parts or gaps limits assumed): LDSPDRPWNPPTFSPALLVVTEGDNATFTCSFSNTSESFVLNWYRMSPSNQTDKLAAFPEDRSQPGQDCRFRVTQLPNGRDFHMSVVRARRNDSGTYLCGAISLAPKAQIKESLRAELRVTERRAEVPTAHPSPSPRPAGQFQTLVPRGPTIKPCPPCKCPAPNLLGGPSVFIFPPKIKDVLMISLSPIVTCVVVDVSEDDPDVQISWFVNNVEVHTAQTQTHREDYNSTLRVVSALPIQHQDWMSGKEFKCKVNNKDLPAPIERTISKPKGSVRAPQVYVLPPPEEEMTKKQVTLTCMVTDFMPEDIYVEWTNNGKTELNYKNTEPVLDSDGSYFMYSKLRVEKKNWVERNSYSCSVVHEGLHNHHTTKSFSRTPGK
human PD-1-mFc-biotin, sequence (Q15116 other isoform, or with tags, fused parts or gaps limits assumed): as above

B1: 14C12H1L1(hG1TM) (antibody, human IgG1, kappa)
heavy: not shown
light: DIQMTQSPSSMSASVGDRVTFTCRASQDINTYLSWFQQKPGKSPKTLIYRANRLVSGVPSRFSGSGSGQDYTLTISSLQPEDMATYYCLQYDEFPLTFGAGTKLELKRTVAAPSVFIFPPSDEQLKSGTASVVCLLNNFYPREAKVQWKVDNALQSGNSQESVTEQDSKDSTYSLSSTLTLSKADYEKHKVYACEVTHQGLSSPVTKSFNRGEC
notes: Humanized anti-PD-1 IgG1 with L234A/L235A/G237A
In the test with PD-1-mFc [1], B1 came in with a dissociation constant Kd of 0.0445 nM. Besides, the values for the EC50 in the test with human PD-1-mFc-biotin and in the test with PD-1-mFc [2] were 2.23 nM and 0.031 nM, respectively.

(Values after patent publication US20230151111A1 (AKESO BIOPHARMA, published 2023).)
